Test results published in US20150344570A1 (published 2015).

B1: GpH7-B3 variant K334_10E/GpL16-k0 (antibody, human IgG1, kappa)
heavy: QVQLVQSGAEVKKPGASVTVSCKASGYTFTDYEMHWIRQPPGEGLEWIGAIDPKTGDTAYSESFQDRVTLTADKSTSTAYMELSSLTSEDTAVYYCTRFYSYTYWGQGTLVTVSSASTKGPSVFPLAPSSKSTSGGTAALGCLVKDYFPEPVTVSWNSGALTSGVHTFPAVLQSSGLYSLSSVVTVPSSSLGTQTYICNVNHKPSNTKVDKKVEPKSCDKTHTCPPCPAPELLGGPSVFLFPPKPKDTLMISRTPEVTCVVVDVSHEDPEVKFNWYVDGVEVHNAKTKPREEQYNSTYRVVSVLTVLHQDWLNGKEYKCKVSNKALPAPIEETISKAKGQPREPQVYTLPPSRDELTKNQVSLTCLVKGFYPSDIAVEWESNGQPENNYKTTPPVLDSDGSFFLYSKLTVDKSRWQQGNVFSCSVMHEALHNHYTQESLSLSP
light: DIVMTQSPLSLPVTPGEPASISCQASESLVHSNRNTYLHWYLQKPGQSPQLLIYKVSNRFSGVPDRFSGSGSGTDFTLKISRVEAEDVGVYYCSQNTHVPPTFGQGTKVEIERTVAAPSVFIFPPSDEQLKSGTASVVCLLNNFYPREAKVQWKVDNALQSGNSQESVTEQDSKDSTYSLSSTLTLSKADYEKHKVYACEVTHQGLSSPVTKSFNRGEC
notes: also called Ho Ab K334_10E
B2: GpH7-B3 variant K334_12R/GpL16-k0 (antibody, human IgG1, kappa)
heavy: not shown
light: DIVMTQSPLSLPVTPGEPASISCQASESLVHSNRNTYLHWYLQKPGQSPQLLIYKVSNRFSGVPDRFSGSGSGTDFTLKISRVEAEDVGVYYCSQNTHVPPTFGQGTKVEIERTVAAPSVFIFPPSDEQLKSGTASVVCLLNNFYPREAKVQWKVDNALQSGNSQESVTEQDSKDSTYSLSSTLTLSKADYEKHKVYACEVTHQGLSSPVTKSFNRGEC
notes: also called Ho Ab K334_12R
B3: GpH7-B3 variant K334_20W/GpL16-k0 (antibody, human IgG1, kappa)
heavy: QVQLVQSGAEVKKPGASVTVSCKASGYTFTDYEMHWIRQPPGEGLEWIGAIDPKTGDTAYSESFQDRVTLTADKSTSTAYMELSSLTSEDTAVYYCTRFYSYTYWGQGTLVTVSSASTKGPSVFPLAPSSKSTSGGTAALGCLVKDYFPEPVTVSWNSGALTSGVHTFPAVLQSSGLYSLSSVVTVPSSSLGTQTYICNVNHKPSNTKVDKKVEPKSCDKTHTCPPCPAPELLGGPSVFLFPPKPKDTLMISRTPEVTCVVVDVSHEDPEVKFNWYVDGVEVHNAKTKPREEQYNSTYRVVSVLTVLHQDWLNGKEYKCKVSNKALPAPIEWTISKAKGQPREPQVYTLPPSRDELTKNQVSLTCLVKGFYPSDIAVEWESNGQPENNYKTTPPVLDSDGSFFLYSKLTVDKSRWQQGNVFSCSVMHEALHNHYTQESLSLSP
light: DIVMTQSPLSLPVTPGEPASISCQASESLVHSNRNTYLHWYLQKPGQSPQLLIYKVSNRFSGVPDRFSGSGSGTDFTLKISRVEAEDVGVYYCSQNTHVPPTFGQGTKVEIERTVAAPSVFIFPPSDEQLKSGTASVVCLLNNFYPREAKVQWKVDNALQSGNSQESVTEQDSKDSTYSLSSTLTLSKADYEKHKVYACEVTHQGLSSPVTKSFNRGEC
notes: also called Ho Ab K334_20W
B4: GpH7-B3 variant L234_03V/GpL16-k0 (antibody, human IgG1, kappa)
heavy: not shown
light: DIVMTQSPLSLPVTPGEPASISCQASESLVHSNRNTYLHWYLQKPGQSPQLLIYKVSNRFSGVPDRFSGSGSGTDFTLKISRVEAEDVGVYYCSQNTHVPPTFGQGTKVEIERTVAAPSVFIFPPSDEQLKSGTASVVCLLNNFYPREAKVQWKVDNALQSGNSQESVTEQDSKDSTYSLSSTLTLSKADYEKHKVYACEVTHQGLSSPVTKSFNRGEC
notes: also called Ho Ab L234_03V
B5: GpH7-B3 variant L234_04F/GpL16-k0 (antibody, human IgG1, kappa)
heavy: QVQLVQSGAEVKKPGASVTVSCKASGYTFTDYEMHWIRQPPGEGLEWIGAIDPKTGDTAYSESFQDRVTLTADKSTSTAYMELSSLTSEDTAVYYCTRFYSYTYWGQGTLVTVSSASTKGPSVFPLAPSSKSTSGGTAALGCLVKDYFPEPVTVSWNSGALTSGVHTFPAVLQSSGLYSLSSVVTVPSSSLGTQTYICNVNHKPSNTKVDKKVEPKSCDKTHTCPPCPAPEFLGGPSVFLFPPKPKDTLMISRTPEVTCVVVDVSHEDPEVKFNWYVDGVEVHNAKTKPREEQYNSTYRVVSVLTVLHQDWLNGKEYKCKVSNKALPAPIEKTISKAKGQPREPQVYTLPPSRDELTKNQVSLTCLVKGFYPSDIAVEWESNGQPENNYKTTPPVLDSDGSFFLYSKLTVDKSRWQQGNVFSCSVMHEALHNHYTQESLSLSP
light: DIVMTQSPLSLPVTPGEPASISCQASESLVHSNRNTYLHWYLQKPGQSPQLLIYKVSNRFSGVPDRFSGSGSGTDFTLKISRVEAEDVGVYYCSQNTHVPPTFGQGTKVEIERTVAAPSVFIFPPSDEQLKSGTASVVCLLNNFYPREAKVQWKVDNALQSGNSQESVTEQDSKDSTYSLSSTLTLSKADYEKHKVYACEVTHQGLSSPVTKSFNRGEC
notes: also called Ho Ab L234_04F
B6: GpH7-B3 variant L234_06M/GpL16-k0 (antibody, human IgG1, kappa)
heavy: not shown
light: DIVMTQSPLSLPVTPGEPASISCQASESLVHSNRNTYLHWYLQKPGQSPQLLIYKVSNRFSGVPDRFSGSGSGTDFTLKISRVEAEDVGVYYCSQNTHVPPTFGQGTKVEIERTVAAPSVFIFPPSDEQLKSGTASVVCLLNNFYPREAKVQWKVDNALQSGNSQESVTEQDSKDSTYSLSSTLTLSKADYEKHKVYACEVTHQGLSSPVTKSFNRGEC
notes: also called Ho Ab L234_06M
B7: GpH7-B3 variant L234_07I/GpL16-k0 (antibody, human IgG1, kappa)
heavy: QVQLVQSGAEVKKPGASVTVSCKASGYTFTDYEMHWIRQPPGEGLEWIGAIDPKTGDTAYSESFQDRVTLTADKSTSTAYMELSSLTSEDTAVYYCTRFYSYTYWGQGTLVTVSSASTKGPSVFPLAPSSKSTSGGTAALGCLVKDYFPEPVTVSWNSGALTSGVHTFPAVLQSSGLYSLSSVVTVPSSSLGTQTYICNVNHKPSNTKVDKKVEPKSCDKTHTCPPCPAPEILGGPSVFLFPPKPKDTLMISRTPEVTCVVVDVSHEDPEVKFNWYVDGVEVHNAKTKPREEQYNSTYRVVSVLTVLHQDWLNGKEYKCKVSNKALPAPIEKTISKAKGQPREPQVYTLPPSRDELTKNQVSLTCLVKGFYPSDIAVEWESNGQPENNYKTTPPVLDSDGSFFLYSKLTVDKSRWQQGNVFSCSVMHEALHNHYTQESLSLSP
light: DIVMTQSPLSLPVTPGEPASISCQASESLVHSNRNTYLHWYLQKPGQSPQLLIYKVSNRFSGVPDRFSGSGSGTDFTLKISRVEAEDVGVYYCSQNTHVPPTFGQGTKVEIERTVAAPSVFIFPPSDEQLKSGTASVVCLLNNFYPREAKVQWKVDNALQSGNSQESVTEQDSKDSTYSLSSTLTLSKADYEKHKVYACEVTHQGLSSPVTKSFNRGEC
notes: also called Ho Ab L234_07I
B8: GpH7-B3 variant L234_10E/GpL16-k0 (antibody, human IgG1, kappa)
heavy: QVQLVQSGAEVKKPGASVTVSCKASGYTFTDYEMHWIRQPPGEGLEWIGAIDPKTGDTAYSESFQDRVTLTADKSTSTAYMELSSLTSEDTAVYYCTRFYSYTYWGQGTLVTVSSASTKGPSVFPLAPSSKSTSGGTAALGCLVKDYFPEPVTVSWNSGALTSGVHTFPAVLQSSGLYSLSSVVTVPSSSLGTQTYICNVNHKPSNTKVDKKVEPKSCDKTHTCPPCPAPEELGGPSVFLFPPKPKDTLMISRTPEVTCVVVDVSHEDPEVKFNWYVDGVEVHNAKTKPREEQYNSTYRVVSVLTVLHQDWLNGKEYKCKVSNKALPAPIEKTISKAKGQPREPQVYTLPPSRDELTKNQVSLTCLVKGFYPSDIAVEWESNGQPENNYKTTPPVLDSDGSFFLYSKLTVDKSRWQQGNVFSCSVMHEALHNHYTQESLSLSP
light: DIVMTQSPLSLPVTPGEPASISCQASESLVHSNRNTYLHWYLQKPGQSPQLLIYKVSNRFSGVPDRFSGSGSGTDFTLKISRVEAEDVGVYYCSQNTHVPPTFGQGTKVEIERTVAAPSVFIFPPSDEQLKSGTASVVCLLNNFYPREAKVQWKVDNALQSGNSQESVTEQDSKDSTYSLSSTLTLSKADYEKHKVYACEVTHQGLSSPVTKSFNRGEC
notes: also called Ho Ab L234_10E
B9: GpH7-B3 variant L234_15Y/GpL16-k0 (antibody, human IgG1, kappa)
heavy: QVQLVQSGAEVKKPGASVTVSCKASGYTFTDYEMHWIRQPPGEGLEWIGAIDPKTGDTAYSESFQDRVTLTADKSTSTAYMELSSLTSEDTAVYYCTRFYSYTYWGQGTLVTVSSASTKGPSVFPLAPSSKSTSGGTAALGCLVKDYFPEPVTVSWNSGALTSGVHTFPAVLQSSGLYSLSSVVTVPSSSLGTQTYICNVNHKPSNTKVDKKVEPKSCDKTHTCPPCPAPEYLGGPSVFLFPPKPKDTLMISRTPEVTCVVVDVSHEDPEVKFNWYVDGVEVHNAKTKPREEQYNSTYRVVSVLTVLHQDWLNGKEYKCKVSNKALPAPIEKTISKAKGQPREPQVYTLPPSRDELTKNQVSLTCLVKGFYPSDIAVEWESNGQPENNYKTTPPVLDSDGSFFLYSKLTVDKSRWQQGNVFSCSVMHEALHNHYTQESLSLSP
light: DIVMTQSPLSLPVTPGEPASISCQASESLVHSNRNTYLHWYLQKPGQSPQLLIYKVSNRFSGVPDRFSGSGSGTDFTLKISRVEAEDVGVYYCSQNTHVPPTFGQGTKVEIERTVAAPSVFIFPPSDEQLKSGTASVVCLLNNFYPREAKVQWKVDNALQSGNSQESVTEQDSKDSTYSLSSTLTLSKADYEKHKVYACEVTHQGLSSPVTKSFNRGEC
notes: also called Ho Ab L234_15Y
B10: GpH7-B3 variant L328_03V/GpL16-k0 (antibody, human IgG1, kappa)
heavy: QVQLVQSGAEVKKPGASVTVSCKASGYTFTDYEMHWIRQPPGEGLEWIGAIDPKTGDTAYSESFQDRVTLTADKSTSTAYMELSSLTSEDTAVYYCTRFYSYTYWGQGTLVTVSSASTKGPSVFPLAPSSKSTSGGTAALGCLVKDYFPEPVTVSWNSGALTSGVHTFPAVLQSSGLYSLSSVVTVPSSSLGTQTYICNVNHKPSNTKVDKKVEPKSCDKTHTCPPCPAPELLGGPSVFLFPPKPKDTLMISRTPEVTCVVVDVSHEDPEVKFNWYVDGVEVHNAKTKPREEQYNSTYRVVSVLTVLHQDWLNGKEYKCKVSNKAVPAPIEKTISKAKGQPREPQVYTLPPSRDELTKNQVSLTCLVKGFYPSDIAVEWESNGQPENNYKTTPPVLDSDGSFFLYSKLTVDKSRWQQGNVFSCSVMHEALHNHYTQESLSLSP
light: DIVMTQSPLSLPVTPGEPASISCQASESLVHSNRNTYLHWYLQKPGQSPQLLIYKVSNRFSGVPDRFSGSGSGTDFTLKISRVEAEDVGVYYCSQNTHVPPTFGQGTKVEIERTVAAPSVFIFPPSDEQLKSGTASVVCLLNNFYPREAKVQWKVDNALQSGNSQESVTEQDSKDSTYSLSSTLTLSKADYEKHKVYACEVTHQGLSSPVTKSFNRGEC
notes: also called Ho Ab L328_03V
B11: GpH7-B3 variant L328_10E/GpL16-k0 (antibody, human IgG1, kappa)
heavy: not shown
light: DIVMTQSPLSLPVTPGEPASISCQASESLVHSNRNTYLHWYLQKPGQSPQLLIYKVSNRFSGVPDRFSGSGSGTDFTLKISRVEAEDVGVYYCSQNTHVPPTFGQGTKVEIERTVAAPSVFIFPPSDEQLKSGTASVVCLLNNFYPREAKVQWKVDNALQSGNSQESVTEQDSKDSTYSLSSTLTLSKADYEKHKVYACEVTHQGLSSPVTKSFNRGEC
notes: also called Ho Ab L328_10E
B12: GpH7-B3 variant L328_14T/GpL16-k0 (antibody, human IgG1, kappa)
heavy: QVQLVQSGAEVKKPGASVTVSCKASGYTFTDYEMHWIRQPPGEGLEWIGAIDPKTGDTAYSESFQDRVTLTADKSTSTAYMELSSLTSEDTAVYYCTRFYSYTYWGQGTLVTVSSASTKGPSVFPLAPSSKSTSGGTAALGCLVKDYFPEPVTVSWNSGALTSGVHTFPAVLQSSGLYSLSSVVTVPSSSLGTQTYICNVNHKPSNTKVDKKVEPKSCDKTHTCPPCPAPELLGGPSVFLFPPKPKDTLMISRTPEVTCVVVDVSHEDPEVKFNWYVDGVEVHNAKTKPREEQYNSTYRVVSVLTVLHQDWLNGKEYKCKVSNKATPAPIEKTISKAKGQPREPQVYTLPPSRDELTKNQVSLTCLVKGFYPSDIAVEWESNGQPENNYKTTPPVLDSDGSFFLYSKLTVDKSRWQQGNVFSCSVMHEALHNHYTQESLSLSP
light: DIVMTQSPLSLPVTPGEPASISCQASESLVHSNRNTYLHWYLQKPGQSPQLLIYKVSNRFSGVPDRFSGSGSGTDFTLKISRVEAEDVGVYYCSQNTHVPPTFGQGTKVEIERTVAAPSVFIFPPSDEQLKSGTASVVCLLNNFYPREAKVQWKVDNALQSGNSQESVTEQDSKDSTYSLSSTLTLSKADYEKHKVYACEVTHQGLSSPVTKSFNRGEC
notes: also called Ho Ab L328_14T
B13: GpH7-B3 variant L328_19Q/GpL16-k0 (antibody, human IgG1, kappa)
heavy: not shown
light: DIVMTQSPLSLPVTPGEPASISCQASESLVHSNRNTYLHWYLQKPGQSPQLLIYKVSNRFSGVPDRFSGSGSGTDFTLKISRVEAEDVGVYYCSQNTHVPPTFGQGTKVEIERTVAAPSVFIFPPSDEQLKSGTASVVCLLNNFYPREAKVQWKVDNALQSGNSQESVTEQDSKDSTYSLSSTLTLSKADYEKHKVYACEVTHQGLSSPVTKSFNRGEC
notes: also called Ho Ab L328_19Q
B14: GpH7-B3 variant L328_20W/GpL16-k0 (antibody, human IgG1, kappa)
heavy: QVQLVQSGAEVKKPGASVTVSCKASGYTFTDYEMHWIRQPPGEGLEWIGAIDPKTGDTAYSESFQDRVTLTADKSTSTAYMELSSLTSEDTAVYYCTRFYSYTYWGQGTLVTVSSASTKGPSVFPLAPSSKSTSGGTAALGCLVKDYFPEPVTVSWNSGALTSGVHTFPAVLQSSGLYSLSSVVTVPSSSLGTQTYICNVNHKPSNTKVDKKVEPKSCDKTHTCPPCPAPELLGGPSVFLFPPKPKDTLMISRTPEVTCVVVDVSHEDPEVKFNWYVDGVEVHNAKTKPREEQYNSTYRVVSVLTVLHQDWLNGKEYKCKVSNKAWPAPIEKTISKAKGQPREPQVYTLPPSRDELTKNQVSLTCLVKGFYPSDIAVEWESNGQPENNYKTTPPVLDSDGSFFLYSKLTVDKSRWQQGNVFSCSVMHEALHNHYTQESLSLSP
light: DIVMTQSPLSLPVTPGEPASISCQASESLVHSNRNTYLHWYLQKPGQSPQLLIYKVSNRFSGVPDRFSGSGSGTDFTLKISRVEAEDVGVYYCSQNTHVPPTFGQGTKVEIERTVAAPSVFIFPPSDEQLKSGTASVVCLLNNFYPREAKVQWKVDNALQSGNSQESVTEQDSKDSTYSLSSTLTLSKADYEKHKVYACEVTHQGLSSPVTKSFNRGEC
notes: also called Ho Ab L328_20W
B15: GpH7-B3 variant P238_03V/GpL16-k0 (antibody, human IgG1, kappa)
heavy: not shown
light: DIVMTQSPLSLPVTPGEPASISCQASESLVHSNRNTYLHWYLQKPGQSPQLLIYKVSNRFSGVPDRFSGSGSGTDFTLKISRVEAEDVGVYYCSQNTHVPPTFGQGTKVEIERTVAAPSVFIFPPSDEQLKSGTASVVCLLNNFYPREAKVQWKVDNALQSGNSQESVTEQDSKDSTYSLSSTLTLSKADYEKHKVYACEVTHQGLSSPVTKSFNRGEC
notes: also called Ho Ab P238_03V
B16: GpH7-B3 variant P238_04F/GpL16-k0 (antibody, human IgG1, kappa)
heavy: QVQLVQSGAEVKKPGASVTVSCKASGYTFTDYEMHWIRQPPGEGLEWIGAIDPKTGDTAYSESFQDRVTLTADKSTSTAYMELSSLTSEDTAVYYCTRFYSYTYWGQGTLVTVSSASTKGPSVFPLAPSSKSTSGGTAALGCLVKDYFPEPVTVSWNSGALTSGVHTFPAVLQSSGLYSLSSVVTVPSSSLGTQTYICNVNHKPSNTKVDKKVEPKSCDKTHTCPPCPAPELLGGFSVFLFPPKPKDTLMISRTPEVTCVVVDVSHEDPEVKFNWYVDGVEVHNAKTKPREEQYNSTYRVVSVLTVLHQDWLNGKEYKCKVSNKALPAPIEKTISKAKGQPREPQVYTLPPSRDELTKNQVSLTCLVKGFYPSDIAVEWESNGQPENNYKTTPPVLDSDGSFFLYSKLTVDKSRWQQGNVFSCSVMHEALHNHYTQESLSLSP
light: DIVMTQSPLSLPVTPGEPASISCQASESLVHSNRNTYLHWYLQKPGQSPQLLIYKVSNRFSGVPDRFSGSGSGTDFTLKISRVEAEDVGVYYCSQNTHVPPTFGQGTKVEIERTVAAPSVFIFPPSDEQLKSGTASVVCLLNNFYPREAKVQWKVDNALQSGNSQESVTEQDSKDSTYSLSSTLTLSKADYEKHKVYACEVTHQGLSSPVTKSFNRGEC
notes: also called Ho Ab P238_04F

What follows are binders tested against T1, FcγRIa (human, UniProt P12314 16-292) (assay: SPR (Biacore); Ho Ab relative to HoCon Ab = 100).
T1 construct: extracellular domain; also called FcgRI; 1a
Procedure: Analysis of interaction between objective antibody and the FcγR was carried out using Biacore T100 (GE Healthcare). HBS-EP+ (GE Healthcare) was used as the running buffer, and the measurement temperature was set to 25° C. Chips produced by immobilizing the antigen peptide by the amine coupling method to a Series S Sencor Chip CM5 (GE Healthcare), or alternatively, chips produced by allowing preliminarily biotinylated antigen peptides to interact with and immobilize onto a Series S Sensor Chip SA (certified) (GE Healthcare) were used. Antibodies of interest were captured onto an antigen peptide-immobilized chip, and allowed to interact to each FcγR diluted with running buffer. To regenerate and repeatedly use the chip, the antibodies captured on the chip were washed off by reacting 10 mM glycine-HCl, pH 1.5.

T1 sequence (P12314 16-292): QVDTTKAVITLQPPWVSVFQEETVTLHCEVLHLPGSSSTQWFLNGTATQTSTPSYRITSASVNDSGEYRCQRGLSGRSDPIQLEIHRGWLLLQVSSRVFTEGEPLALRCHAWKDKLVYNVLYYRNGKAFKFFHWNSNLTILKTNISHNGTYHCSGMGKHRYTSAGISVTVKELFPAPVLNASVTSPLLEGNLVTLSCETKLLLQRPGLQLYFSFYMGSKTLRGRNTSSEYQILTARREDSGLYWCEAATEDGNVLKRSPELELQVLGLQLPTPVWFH

Compared with B1, B2 is lower in Ho/Con_1a: 107 % of control for the first, 102 % of control for the second.

First: B3
Second: B4
The Ho/Con_1a of the first is higher: 104 % of control for the first, 98.2 % of control for the second.

Compared with B5, B6 is higher in Ho/Con_1a: 93.5 % of control for the first, 96.5 % of control for the second.

Compared with B7, B8 is lower in Ho/Con_1a: 99.5 % of control for the first, 79.6 % of control for the second.

First: B9
Second: B10
The Ho/Con_1a of the first is lower: 98.9 % of control for the first, 99.2 % of control for the second.

Going from B11 to B12, the Ho/Con_1a falls from 101 % of control to 98.6 % of control.

First: B13
Second: B14
The Ho/Con_1a of the first is lower: 99.3 % of control for the first, 99.9 % of control for the second.

First: B15
Second: B16
The Ho/Con_1a of the first is lower: 97.9 % of control for the first, 98.7 % of control for the second.
